Reference: patent US10610603B2, “Thymidine kinase gene” (GenVivo, Inc., priority 2013, dated 2020)

B1: A168H and mutated at amino acids 159-161 from LIF to IFL: mHSV-TK CO MB-IFL A168H(IFL . . . AHL) (nucleic acid)
chain: GTCAGCGGCCGCACCGGTACGCGTCCACCATGGCCAGCTACCCCGGCCACCAGCACGCCAGCGCCTTCGACCAGGCCGCCCGCAGCCGCGGCCACAGCAACGGCAGCACCGCACTGCGGCCACGGCGCCAGCAGGAGGCCACCGAGGTGCGCCCCGAGCAGAAGATGCCCACCCTGCTGCGCGTGTACATCGACGGACCACACGGCATGGGCAAGACCACCACCACCCAGCTGCTGGTGGCCCTGGGCAGCCGCGACGACATCGTGTACGTGCCCGAGCCCATGACCTACTGGCGCGTGCTGGGCGCCAGCGAGACCATCGCCAACATCTACACCACCCAGCACCGCCTGGACCAAGGCGAGATCAGCGCCGGCGACGCCGCCGTGGTGATGACCAGCGCCCAGATTACAATGGGCATGCCCTACGCCGTGACCGACGCCGTGCTGGCACCACACATCGGCGGCGAGGCCGGCAGCAGCCACGCACCACCACCAGCACTGACCATCTTCCTGGACCGGCACCCAATCGCACACCTGCTGTGCTACCCGGCAGCACGCTACCTGATGGGCTCCATGACACCACAAGCCGTGCTGGCCTTCGTGGCCCTGATCCCACCAACACTGCCCGGCACCAACATCGTGCTGGGCGCCCTGCCCGAGGACCGCCACATCGACCGCCTGGCCAAGCGCCAGCGCCCCGGCGAGCGCCTGGACCTGGCCATGCTGGCCGCCATCCGCCGCGTGTACGGCCTGCTGGCCAACACCGTGCGCTACCTGCAGTGCGGCGGCAGCTGGCGCGAGGACTGGGGCCAGCTGAGCGGCACCGCCGTGCCACCACAGGGCGCCGAGCCACAGAGCAACGCCGGACCACGACCACACATCGGCGACACCCTGTTCACCCTGTTCCGGGCACCAGAGCTGCTGGCACCAAACGGCGACCTGTACAACGTGTTCGCCTGGGCCCTGGACGTGCTGGCCAAGCGCCTGCGCTCCATGCACGTGTTCATCCTGGACTACGACCAGTCACCGGCCGGCTGCCGCGACGCCCTGCTGCAGCTGACCAGCGGCATGGTGCAGACCCACGTGACAACACCCGGCAGCATCCCAACAATCTGCGACCTGGCCCGCACCTTCGCCCGCGAGATGGGCGAGGCCAACTAATAGGGATCCCTCGAGAAGCTTGTCA
B2: SEQ ID NO: 18 (nucleic acid)
chain: GTCAGCGGCCGCACCGGTACGCGTCCACCATGGCCCTGCAGAAAAAGCTGGAAGAGCTGGAACTGGATGGCAGCTACCCCGGCCACCAGCACGCCAGCGCCTTCGACCAGGCCGCCCGCAGCCGCGGCCACAGCAACGGCAGCACCGCACTGCGGCCAGGATCTCAGCAGGAGGCCACCGAGGTGCGCCCCGAGCAGAAGATGCCCACCCTGCTGCGCGTGTACATCGACGGACCACACGGCATGGGCAAGACCACCACCACCCAGCTGCTGGTGGCCCTGGGCAGCCGCGACGACATCGTGTACGTGCCCGAGCCCATGACCTACTGGCGCGTGCTGGGCGCCAGCGAGACCATCGCCAACATCTACACCACCCAGCACCGCCTGGACCAAGGCGAGATCAGCGCCGGCGACGCCGCCGTGGTGATGACCAGCGCCCAGATTACAATGGGCATGCCCTACGCCGTGACCGACGCCGTGCTGGCACCACACATCGGCGGCGAGGCCGGCAGCAGCCACGCACCACCACCAGCACTGACCCTGATCTTCGACCGGCACCCAATCGCACACCTGCTGTGCTACCCGGCAGCACGCTACCTGATGGGCTCCATGACACCACAAGCCGTGCTGGCCTTCGTGGCCCTGATCCCACCAACACTGCCCGGCACCAACATCGTGCTGGGCGCCCTGCCCGAGGACCGCCACATCGACCGCCTGGCCAAGCGCCAGCGCCCCGGCGAGCGCCTGGACCTGGCCATGCTGGCCGCCATCCGCCGCGTGTACGGCCTGCTGGCCAACACCGTGCGCTACCTGCAGTGCGGCGGCAGCTGGCGCGAGGACTGGGGCCAGCTGAGCGGCACCGCCGTGCCACCACAGGGCGCCGAGCCACAGAGCAACGCCGGACCACGACCACACATCGGCGACACCCTGTTCACCCTGTTCCGGGCACCAGAGCTGCTGGCACCAAACGGCGACCTGTACAACGTGTTCGCCTGGGCCCTGGACGTGCTGGCCAAGCGCCTGCGCTCCATGCACGTGTTCATCCTGGACTACGACCAGTCACCGGCCGGCTGCCGCGACGCCCTGCTGCAGCTGACCAGCGGCATGGTGCAGACCCACGTGACAACACCCGGCAGCATCCCAACAATCTGCGACCTGGCCCGCACCTTCGCCCGCGAGATGGGCGAGGCCAACTAATAGGGATCCCTCGAGAAGCTTGTCA

How the values were obtained:
Type in all cases: cell-based
cancer cells = experiment: GCV mediated cancer kill following retroviral transduction delivery
Description: To our knowledge, this is the most GCV selective HSV-TK synthetic gene product for GCV activation which has no Thymidine activity (HAT assay) ever evaluated biologically.

A375 human melanoma = experiment: In vitro bystander assay; details: 0-100% HSV-TK-m2 cells, 5-20 μM GCV
Procedure: (§1) Cells are seeded at 1-4×10^4 cells/well in a 96 well plate, in triplicate, with mixtures of TK cells ranging from 0-100%. The next day GCV is added at doses ranging from 10 μm to 1 mM. Cells plates at confluency are split 1:30 into 3 plates, 20-24 hours after GCV addition. 5 days later, cells are analyzed by Presto Blue for live cell metabolism and read on a microplate reader. Cell plates at sub-confluency are analyzed 3 days after GCV treatment by Presto Blue.
(§2) A375 human melanoma and C6 rat glioma stable pure population cell lines were established containing the A168H mutated HSV-TK-m2 gene. The bystander assays were conducted by plating the cancer cells with mixtures of the parental non-HSV-TK-m2 cells with the corresponding HSV-TK-m2 cell line ranging from 0-100% HSV-TK-m2. The mixtures of cancer cells were subsequently exposed to 5-20 μM GCV and cell kill is plotted in the figures below.

C6 rat glioma = experiment: In vitro bystander assay; details: 0-100% HSV-TK-m2 cells, 5-20 μM GCV
Procedure: as §1, §2

| Molecule | GCV mediated cancer kill activity (cancer cells) | cell kill in mixed populations (bystander effect) (A375 human melanoma) | cell kill in mixed populations (bystander effect) (C6 rat glioma) |
| --- | --- | --- | --- |
| B1 | exhibited GCV mediated cancer cell kill activity | – | – |
| B2 | exhibited pro-drug GCV enzyme activity and selectivity for their ability to kill cancer cells | significant increases in the mixed populations over what would be considered theoretical | significant increases in the mixed populations over what would be considered theoretical |
